Article PMC6041441, “WRKY1 acts as a key component improving resistance against Alternaria solani in wild tomato, Solanum arcanum Peralta”
Substitutions are numbered along the chain they refer to.

T1: rSaWRKY1 (Solanum arcanum Peralta (accession not …, UniProt A0A1P8NTG4 1-410))
T1 sequence: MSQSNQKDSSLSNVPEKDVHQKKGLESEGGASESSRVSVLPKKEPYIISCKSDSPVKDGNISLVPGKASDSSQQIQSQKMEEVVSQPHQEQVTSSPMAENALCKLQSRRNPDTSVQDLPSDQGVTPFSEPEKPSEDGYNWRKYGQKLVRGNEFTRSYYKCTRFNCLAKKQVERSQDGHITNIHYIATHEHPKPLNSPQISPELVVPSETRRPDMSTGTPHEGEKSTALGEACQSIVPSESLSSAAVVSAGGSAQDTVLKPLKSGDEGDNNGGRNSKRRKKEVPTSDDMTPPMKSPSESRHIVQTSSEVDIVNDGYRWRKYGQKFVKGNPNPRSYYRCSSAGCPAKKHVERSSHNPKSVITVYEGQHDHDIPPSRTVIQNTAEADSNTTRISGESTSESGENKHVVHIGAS

B1: 4xW-box (dsDNA)
DNA 1: AAAAAATTGACCAAATTGACTCCAATTGACCAAATTGACCAAACACCACCTCCCACCTATAAAAAA
DNA 2: TTTTTTATAGGTGGGAGGTGGTGTTTGGTCAATTTGGTCAATTGGAGTCAATTTGGTCAATTTTTT
B2: mutated 4xW-box (4xmWbox) (dsDNA)
DNA 1: B1 DNA 1 with G9T, G18T, G28T, G37T
DNA 2: B1 DNA 2 with C30A, C39A, C49A, C58A

Biological target: T1, rSaWRKY1
Test: EMSA; 10 ug protein; 10x binding buffer: 0.10 mg/mL BSA, 1 mM DTT, 10 mM EDTA, 50% glycerol, 1 M KCl, 100 mM Tris-HCl pH 7.5 (stock as printed; working dilution not stated); 25 C, 30 min; 2% agarose gel, GelRed
Settings: protein: recombinant; recombinant protein 62.6 kDa; label: none (GelRed stain); blunt

Binder	binding result
B1	binds
B2	no binding
